Reference: the supplement of paper PMC12042874
± gives the uncertainty stated by the source.

Experiment: amyloid nucleation score (Sup35N fusion, yeast selection) (log enrichment); library NNK2; higher = more nucleation; inactive = no reads after selection
Summary of the method: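 Psi-negative yeast expressed Sup35N fused to peptides of 20 random codons. They were induced 24 hours with 100 μM copper sulfate, grown 7 days at 30°C without adenine and uracil, and their plasmid inserts from input and output were Illumina-sequenced. The nucleation score is the DiMSum log enrichment of output over input reads, centred on the mode score of non-aggregating sequences. Sequences with under 100 input reads were excluded.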

Substance	amyloid nucleation score
IYWLKTPMLLYWGSPCPRNA	0.058 ± 1
DNKSCFTNVWNYNVTEHWGH	-1.4 ± 0.54
ITFFLRDMIAC	-0.907 ± 1
DRVQG	1.2 ± 0.22
SELFQLIGILHSNLFGIYMF	-0.427 ± 0.74
GLVGEGRACYVKHD	0.861 ± 0.57
SWGLRTWF	1.06 ± 0.39
PYNLVGLGLFSPAGF	-0.849 ± 0.61
TGLVFYSSRFYVTVSMVLKE	inactive
WGNILW	inactive
VDIVFSPSTNQWFLFLNCLV	4.24 ± 0.038
QTGQGYIVQGTVNSMKGCFR	-0.038 ± 0.65
LFRSHSCVCTLVKQ	-0.008 ± 0.46
VAFIYCIV	4.99 ± 0.068
CSCEVALIIK	inactive
YHFYMASYKAFKSGGVGTGG	-1.56 ± 1.1
SHFVCMWFYYISTWKCS	-0.766 ± 0.48
LNGCSRILAFYMGCSCGGLM	-1.02 ± 0.76
TRLPEMGLMDLITRSCYNRD	-1.35 ± 0.75
ITGKTGVCSNNYTLKILGIV	-0.826 ± 0.33
NELFWFNMSFSCPKWGICNL	4.17 ± 0.043
CMFSLNGAYSMPHVKMSMCM	-0.786 ± 0.46
WSNSYHRLILWRQCIFGLLV	2.76 ± 0.081
HVVMFS	-0.38 ± 0.76
FLLTKSRCLEVFA	4.68 ± 0.065

Substance	amyloid nucleation score
SRICLLTYMGSIINRDVSVY	-1.6 ± 0.55
MFWSTSYRNNFWTPIWEKLG	-0.597 ± 0.39
FNDSPSYWFSHYIAARSSVE	-0.37 ± 0.36
FTTMESDGMVFGL	3.75 ± 0.061
GQLGNCLVSAAFLFAFIVLS	4.33 ± 0.075
MEPSVIRF	-0.271 ± 0.55
RVISGSMVETIDEDIVEGVN	-0.332 ± 0.3
GFEWSLSRIDLCSGFGLGAG	1.24 ± 0.29
PVRSMNPLRRLNESSRFDEE	1.48 ± 0.61
SVRAVRMWIMDRNAARRMSG	0.997 ± 0.17
NFNVQKIFNGDCDLVWRGFV	-1.31 ± 0.76
LDAGCRMYWGVRLEFRICNL	4.79 ± 0.062
PIYCNQRVDRALTMFTQFRA	-0.121 ± 1.1
LLTAFTTYYLIYHSFSRYLA	-1.47 ± 1.1
SSSIRVRTDEHMEVAGKRLS	0.217 ± 0.27
FKFVIYRFIFHPSEVPKGD	0.057 ± 1.1
RGGRSVRTVNWPSYMMSVPD	-0.076 ± 0.3
NVPCGLN	-0.032 ± 1.1
IRLVHSNVEIWGSDLVFHRG	6.196 ± 0.04
ELGVTNLDVDRHIDY	-0.038 ± 1.1
SRLKIFIPNVFL	-0.067 ± 1.1
NEENVEVFCYRVSGSYRCYQ	4.36 ± 0.094
YQRMPSIYGEVVCHQSCQGV	-0.069 ± 0.45
NTRRSFVRVYFNGLGLCGAN	inactive
SRERPHFPLLIPGENMIMLM	1.04 ± 0.1

Substance	amyloid nucleation score
PIRLQIWVWPVPKR	0.8 ± 0.55
TNRNKRWRYLTLFV	0.545 ± 0.37
IDILWVRVNAFLSVVEIRSN	0.949 ± 0.15
IYKQLMVCHKCSDSAVTGYQ	6.14 ± 0.075
RVGCLWFRLYPLYSGFMRSR	-1.08 ± 1
VRGYCGFALQLVRCEWRICS	7.272 ± 0.06
TDSRFLWGSKRNHCVRWCML	-0.242 ± 1.1
SKLRYNFR	-0.573 ± 0.32
WYFPSVKIIENLW	6.035 ± 0.038
CHLIVICIQFDKLNLESAFH	0.547 ± 0.81
FARSFPRFRTESFDCKECRG	inactive
RLLALLGSCYWAGLDVSARI	3.36 ± 0.097
TSGWNAERMFEHINGQFVFL	-0.195 ± 0.49
SDSGQVVNSLGSKEGIRFFD	-1.17 ± 0.38
LLWCIERG	0.946 ± 0.51
RCSSRPCDLCVTEWIRRMEG	0.357 ± 0.45
QSRSRIGFGQCGRFGTAWWV	0.605 ± 0.45
TRNNLSVERQKVRAMSCEKC	-0.038 ± 1.1
VLLHCRSICGTRLALPLTGR	1.57 ± 0.4
GVSWTFFGEYFQPCSSMKVN	-0.538 ± 0.46
KLGKPFARRKFCICNSQWVG	-0.743 ± 0.31
TSDYYTSNVQDSALRHFFSP	-0.081 ± 0.34
ARFILFVALFWKFLY	0.431 ± 0.46
VTAAVNCFVNKAQLCTCLFM	9.097 ± 0.052
SVDSLWQYQSFRALFPCFMS	inactive

Substance	amyloid nucleation score
CILARWRYRRLHTSGLWASK	0.9 ± 0.43
GVTFSSMLRPFSAIAKRLVV	0.733 ± 0.56
ITSFKWVLKGSWCKGRESKF	4.87 ± 0.068
NLFNLSCHGLLNERKHLSGV	-0.442 ± 0.44
AKLPKPSRLHQRLTKQTV	1.19 ± 0.38
CYWWDWVLY	-0.032 ± 0.45
LNLMVTW	-0.926 ± 0.78
RTIQMVTSQSLPCFC	6.196 ± 0.042
NYRMCFTLHSCYLIRSDNLS	inactive
GKRLSAFWQVVRSWLHIGGM	5.176 ± 0.035
FIRIVSFMRWHATTSALAIA	0.106 ± 0.36
WIFFHGGRMRTCYRDAVGEV	-0.484 ± 0.36
PGHLLRILVFSNNYAYQRDI	-0.647 ± 0.42
FLLRVSSSTKTRRSSGVDL	3.69 ± 0.095
TVLLMIMMYFIANSFYVACG	5.89 ± 0.066
KTPVGYTRRGSPFTR	1.16 ± 0.33
FRKCI	1.25 ± 0.38
LYRAGVAFVCTYFVNSGEF	2.61 ± 0.13
WQHGVRSGQQECPRLEGNRV	0.379 ± 0.23
MTMFTCMWVNRER	4.79 ± 0.057
HPMLLMKNARG	-0.086 ± 0.27
RLTYCSQFVWTWCCNRAING	9.062 ± 0.024
VCCVP	-1.09 ± 1.1
NTSFRGTTTRKSY	-0.233 ± 0.29
PEFGTDIPKSRRRKEGCRGG	0.717 ± 0.23

Substance	amyloid nucleation score
ENVFDCNRFY	inactive
GFLYR	-1.23 ± 0.3
AYIARYNPTSLNRVEYPPDD	1.49 ± 0.58
SFGYPPVCLLFSHLHRRFLL	0.237 ± 1
TTKPSAILWGSTSKRPRLPR	1.23 ± 0.34
GQSLLLEPSGWVSSDIKMKG	0.153 ± 0.79
LLICDSMHHTM	0.275 ± 0.48
TITPKSSICNPLRDNSYSVV	0.136 ± 0.65
HYFRIAIL	-0.667 ± 0.45
GIFISISPPIGESSGNLQLN	inactive
LYMAFREMQSWQHCW	-0.227 ± 0.49
HGQISLRMWQVRR	5.759 ± 0.052
KWDWICSVRCRVRSAYQMSN	inactive
NSTCDMLVSQVVAAVNGF	-0.715 ± 0.49
VFSPFQFNFWWSFCVNFALV	4.367 ± 0.035
VTSLG	-0.249 ± 0.25
SRRDGCGAPSKTSNWA	0.64 ± 0.8
QCVQRHALRVG	4.31 ± 0.12
YCITEVRWAVA	5.61 ± 0.058
LVNVIS	0.2 ± 0.35
FLFRKYWLTNRWLFMFKEFA	0.196 ± 0.65
FTNIGSEYDMTGLNEGSSMP	-0.411 ± 0.29
FVHFMRVAASRNTNFYNLLW	inactive
RALVYVWACSVLLDNCTSRH	-0.935 ± 1.1
LGFFKSGVVH	inactive

Substance	amyloid nucleation score
AVPCNC	-0.216 ± 0.62
HNYIWARTRSRGRPMYSVPA	0.798 ± 0.33
NKCQMSCNRRYEDMGYDRCM	0.038 ± 0.53
YGSVR	0.669 ± 0.37
YDAMFS	1.09 ± 0.45
LIKVVVMS	1.04 ± 0.42
MRSDYTSWVWVCVFMLTLGV	-0.679 ± 0.32
SLLNQLIKRNKSNAYVVHGI	-0.275 ± 0.4
KSLKCFHLVRFTFS	-0.492 ± 0.36
VLLSKGRNHSPCVHILAIIP	0.494 ± 0.8
WVLDVSFTVVFKMIHGVVSL	3.9 ± 0.14
HSYITG	0.018 ± 0.19
SKGRYAYRRMGAYLCSD	1.48 ± 0.43
GEKTVLVYMVG	4.9 ± 0.07
IFYKPVFSLFVIGSRMNGGI	7.29 ± 0.054
TFGLA	1.06 ± 0.4
SPSDSAL	-0.501 ± 0.64
MHASDDMLKCWYKCAEVRPA	1.29 ± 0.31
YIFSIS	-1.26 ± 0.62
TGQSHFSWQYLRTAAVYSRR	0.569 ± 0.27
TLLVKSKDYRNANSG	0.185 ± 0.5
VRSPCVDVYFPYSLVLDMCL	0.614 ± 0.62
VFVERMPVGFHPFRIKIILT	1.01 ± 0.59
RYRRFVIGVQWQRLSRG	-0.19 ± 1.1
STKVR	1.3 ± 0.32

Substance	amyloid nucleation score
VSDNFTYVLVYESGTGFTVS	inactive
PWDVGRRR	0.97 ± 0.55
RESGLRFNNYMMRWLHGGRV	-0.072 ± 0.29
GSSRLCRQYAVNFFDCHMYD	4.78 ± 0.056
LVHYPIYFLDNGFRHGDWEG	-0.187 ± 0.55
NFCFVWLSREYHRLALCSGV	inactive
SILFNVARGCAGVPNLKSYS	-0.43 ± 0.56
GDYSCVHQVRKIDM	0.162 ± 0.18
FYQVNLPSCLNSDDNRCS	inactive
AMLRPQTDHGVSSIHSLIIG	inactive
QYPDSCS	-0.381 ± 0.79
YLQLRMLTVMGCLRLCTSMP	0.386 ± 0.34
YAWKNPYSCWICR	-0.174 ± 0.44
LVAKHSG	0.693 ± 0.27
ECCQILCGSYWYIKYLSYDC	1.8 ± 0.13
TFCVNFARRVSLRSVLATIG	0.034 ± 0.43
WRGFTECRVKLRYSGSGQFC	2.92 ± 0.058
LRSACCLIRSLNTAVCGWTK	4.22 ± 0.048
CFVWIIRLYVQSRMLSTSNL	-0.181 ± 0.8
LKSSWPFDVKKAYKCYVKFA	0.006 ± 0.65
MWRFRPLRSDTLRYDGSMGC	-0.021 ± 0.76
YSNSGVTWLRMHNVMFCGEG	-0.122 ± 0.32
